Measurements taken from article PMC10706732.

Molecular target: Human ceruloplasmin (human) (UniProt P00450)
Experiment: SPR; Biacore X100; human CP immobilised on CM5 chip by EDC/NHS (3.3 ng/mm2); LF or LF/8OA as analyte in HBS-P+ (150 mM NaCl, 10 mM Hepes pH 7.5, 0.05% polyoxyethylene sorbitan), 30 uL/min; 1:1 Langmuir model

UniProt P00450, sequence (P00450 20-1065): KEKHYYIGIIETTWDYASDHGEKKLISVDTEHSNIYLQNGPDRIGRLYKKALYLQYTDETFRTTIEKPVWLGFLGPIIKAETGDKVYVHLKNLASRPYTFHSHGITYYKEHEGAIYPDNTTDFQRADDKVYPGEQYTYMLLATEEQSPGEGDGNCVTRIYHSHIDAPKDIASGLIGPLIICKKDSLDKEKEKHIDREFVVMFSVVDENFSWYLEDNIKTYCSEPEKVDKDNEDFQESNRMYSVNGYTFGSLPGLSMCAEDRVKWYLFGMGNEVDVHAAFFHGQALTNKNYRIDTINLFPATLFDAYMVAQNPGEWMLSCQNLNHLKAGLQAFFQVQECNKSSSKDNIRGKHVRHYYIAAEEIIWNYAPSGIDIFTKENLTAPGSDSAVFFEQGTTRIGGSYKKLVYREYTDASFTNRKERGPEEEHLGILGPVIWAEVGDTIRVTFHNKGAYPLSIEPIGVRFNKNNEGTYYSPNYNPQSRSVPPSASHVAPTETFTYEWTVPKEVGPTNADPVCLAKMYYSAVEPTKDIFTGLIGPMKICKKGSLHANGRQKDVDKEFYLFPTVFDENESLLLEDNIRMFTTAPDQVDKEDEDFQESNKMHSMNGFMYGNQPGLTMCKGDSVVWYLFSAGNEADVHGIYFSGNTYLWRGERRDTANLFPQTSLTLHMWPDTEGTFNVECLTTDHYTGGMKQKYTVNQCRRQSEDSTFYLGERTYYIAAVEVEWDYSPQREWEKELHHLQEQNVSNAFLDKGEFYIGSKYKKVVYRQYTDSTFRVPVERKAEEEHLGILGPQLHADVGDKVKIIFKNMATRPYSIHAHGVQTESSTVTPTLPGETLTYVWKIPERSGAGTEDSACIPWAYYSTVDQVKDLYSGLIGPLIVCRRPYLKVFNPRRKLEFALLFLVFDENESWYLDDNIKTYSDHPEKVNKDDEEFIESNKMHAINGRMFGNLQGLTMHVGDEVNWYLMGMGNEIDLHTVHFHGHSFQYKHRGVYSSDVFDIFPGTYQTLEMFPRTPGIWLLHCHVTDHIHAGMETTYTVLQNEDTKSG

| Kd | Substance |
| --- | --- |
| 0.407 µM | Complex formed by one human lactoferrin molecule and eight molecules of oleic acid |
| 0.367 µM | Recombinant human lactoferrin (natural protein) |
